How the values were obtained:
Assay in all cases: filter binding
Conditions in all cases: Nitrocellulose filter binding, 0.5 ml, 37 C, 30-60 min, then agarose gel. Topo IV: 40 mM Tris-HCl pH 7.5, 6 mM MgCl2, 100 mM KOAc, 1 mM DTT, 0.1 mM EDTA
[1] = tested on: ntop1 Y723F (nuclear topoisomerase I) (human)
[2] = tested on: Topo IV (ParC+ParE) (Escherichia coli)
RecQ (Escherichia coli) = tested on: RecQ (Escherichia coli)
EcoRV = tested on: EcoRV
[3] = tested on: top1mt Y559F (mitochondrial topoisomerase I) (human)
Tfam (human) = tested on: Tfam (human)

## pBR322, nicked (open circular)
[1]; nick, position undefined
  binding signal (Ka nicked/Ka relaxed): 8.6

## pBR322, negatively supercoiled topoisomer dLk about -23 (unresolved band below -10)
[2]
  binding signal (fold Ka vs relaxed): 5

## pBR322, relaxed closed circular (dLk 0; dLk -1 as reference for Topo IV and Tfam)
[2]
  binding signal (Ka ratio (reference dLk -1)): 1
RecQ (Escherichia coli)
  binding signal (Ka ratio (reference dLk 0)): 1
EcoRV
  binding signal (Ka ratio (reference dLk 0)): 1
[1]
  binding signal (Ka ratio (reference dLk 0)): 1
[3]
  binding signal (Ka ratio (reference dLk 0)): 1
Tfam (human)
  binding signal (Ka ratio (reference dLk -1)): 1
